Blank lines part the entries; values can stand above or below the molecule they belong to.
Assays:
Type in all cases: cell-based
PCSK9 exon 12 = assay: Indels editing in PCSK9 gene using Cas9 and blunting enzymes; settings: HEK293T cells, Cas9 + PCSK9 exon 12 sgRNA + blunting enzyme; for percentage of +1 insertion: Cas9 and sgRNA alone 14.4%; for percentage of +1 insertion / percentage of −1 deletion: FIGS. 11A-11H; for +1 insertion frequency: control 9.4%, FIGS. 12A-12B; for percentage of −1 deletion: Cas9 and sgRNA alone 4.3%
Protocol: (§1) To test for the efficiency of inducing indels in a target gene using Cas9 and blunting enzymes, Cas9 and PCSK9 exon 12 targeting sgRNA were co-transferred into cultured mammalian cells in combination with DNA polymerase μ (POLM), EXOG, T4 DNA polymerase (T4pol), DNA polymerase λ (POLL), MGME1, RecJ exonuclease (RecJ) or Nuclease S1 (nucS). Cas9 and sgRNA alone served as the negative control. The occurrence of indels for the control and each of the combinations was measured. HEK293T cells were used.
Results for each of the combinations are presented in FIGS. 11A-11H and comparisons between the control and blunting enzymes are presented in FIGS. 12A-12B.

GYPB gene = assay: Indels editing in GYPB gene using Cas9 and blunting enzymes; settings: cultured mammalian cells, Cas9 + GYPB sgRNA + blunting enzyme; for percentage of +1 insertion mutations: Cas9 and sgRNA alone 10.5%, FIGS. 13A-13H
Protocol: as §1, with “GYPB” for “PCSK9 exon 12”, “measured.” for “measured. HEK293T cells were used.”

TPH2 exon 9 = assay: Indels editing in TPH2 gene using Cas9 and blunting enzymes; settings: cultured mammalian cells, Cas9 + TPH2 sgRNA + blunting enzyme; for percentage of +1 insertion mutations: Cas9 and sgRNA alone 0%, FIGS. 14A-14H
Protocol: as §1, with “TPH2” for “PCSK9 exon 12”, “POLM,” for “DNA polymerase μ (POLM),”, “polymerase,” for “DNA polymerase (T4pol),”, “measured.” for “measured. HEK293T cells were used.”

B1: T4pol: T4 DNA polymerase, DSB-end blunting enzyme co-transferred with Cas9 and sgRNA (protein, UniProt P04415 1-898, looked up)
DNA-directed DNA polymerase: MKEFYISIETVGNNIVERYIDENGKERTREVEYLPTMFRHCKEESKYKDIYGKNCAPQKFPSMKDARDWMKRMEDIGLEALGMNDFKLAYISDTYGSEIVYDRKFVRVANCDIEVTGDKFPDPMKAEYEIDAITHYDSIDDRFYVFDLLNSMYGSVSKWDAKLAAKLDCEGGDEVPQEILDRVIYMPFDNERDMLMEYINLWEQKRPAIFTGWNIEGFDVPYIMNRVKMILGERSMKRFSPIGRVKSKLIQNMYGSKEIYSIDGVSILDYLDLYKKFAFTNLPSFSLESVAQHETKKGKLPYDGPINKLRETNHQRYISYNIIDVESVQAIDKIRGFIDLVLSMSYYAKMPFSGVMSPIKTWDAIIFNSLKGEHKVIPQQGSHVKQSFPGAFVFEPKPIARRYIMSFDLTSLYPSIIRQVNISPETIRGQFKVHPIHEYIAGTAPKPSDEYSCSPNGWMYDKHQEGIIPKEIAKVFFQRKDWKKKMFAEEMNAEAIKKIIMKGAGSCSTKPEVERYVKFSDDFLNELSNYTESVLNSLIEECEKAATLANTNQLNRKILINSLYGALGNIHFRYYDLRNATAITIFGQVGIQWIARKINEYLNKVCGTNDEDFIAAGDTDSVYVCVDKVIEKVGLDRFKEQNDLVEFMNQFGKKKMEPMIDVAYRELCDYMNNREHLMHMDREAISCPPLGSKGVGGFWKAKKRYALNVYDMEDKRFAEPHLKIMGMETQQSSTPKAVQEALEESIRRILQEGEESVQEYYKNFEKEYRQLDYKVIAEVKTANDIAKYDDKGWPGFKCPFHIRGVLTYRRAVSGLGVAPILDGNKVMVLPLREGNPFGDKCIAWPSGTELPKEIRSDVLSWIDHSTLFQKSFVKPLAGMCESAGMDYEEKASLDFLFG
percentage of +1 insertion (PCSK9 exon 12): 36.75%
+1 insertion frequency (PCSK9 exon 12): 30.3%
percentage of −1 deletion mutations (GYPB gene; Cas9 and sgRNA alone 1.7%, FIG. 13D): 9.05%
percentage of +1 insertion mutations (GYPB gene): 13.4%
percentage of −1 deletion mutations (TPH2 exon 9; Cas9 and sgRNA alone 13.2%, FIG. 14D): 36.7%

B2: MGME1: single-strand DNA specific nuclease, blunting enzyme co-transferred with Cas9 and sgRNA (protein)
chain: LQQTMTKQQVFLLERWKQRMILELGEDGFKEYTSSFHVCDHVYMKNLARDVFLQGKRFHEALESILSPQETLKERDENLLKSGYIESVQHILKDVSGVRALESAVQHETLNYIGLLDCVAEYQGKLCVIDWKTSEKPKPFIQSTFDNPLQVVAYMGAMNHDTNYSFQVQCGLIVVAYKDGSPAHPHFMDAELCSQYWIKWLLRLEEYTEKKKNQNIQKPEYSE
percentage of −1 deletion (PCSK9 exon 12): 6.35%

B4: EXOG: single-strand DNA specific nuclease, blunting enzyme co-transferred with Cas9 and sgRNA (protein)
chain: WSRGHMAPAGNNKFSSKAMAETFYLSNIVPQDFDNNSGYWNRIEMYCRELTERFEDVWVVSGPLTLPQTRGDGKKIVSYQVIGEDNVAVPSHLYKVILARRSSVSTEPLALGAFVVPNEAIGFQPQLTEFQVSLQDLEKLSGLVFFPHLDRTSDIRNICSVDTCKLLDFQEFTLYLSTRKIEGARSVLRLEKIMENLKNAEIEPDDYFMSRYEKKLEELKAKEQSGTQIRKPS
percentage of −1 deletion (PCSK9 exon 12): 5.05%

More lines, now with the values ahead:

percentage of +1 insertion (PCSK9 exon 12): 19.6%
percentage of +1 insertion mutations (GYPB gene): 13.7%
percentage of +1 insertion mutations (TPH2 exon 9): 12.5%
Molecule: POLM: DNA polymerase μ, DSB-end blunting enzyme co-transferred with Cas9 and sgRNA (AIYLVEPRMGRSRRAFLTGLARSKGFRVLDA)

percentage of −1 deletion (PCSK9 exon 12): 5.5%
B3: RecJ: RecJ exonuclease, blunting enzyme co-transferred with Cas9 and sgRNA (protein)
chain: TVDNGISSHAGVEHARSLGIPVIVTDHHLPGDTLPAAEAIINPNLRDCNFPSKSLAGVGVAFYLMLALRTFLRDQGWFDERNIAIPNLAELLDLVALGTVADVVPLDANNRILTWQGMSRIRAGKCRPGIKALLEVANRDAQKLAASDLGFALGPRLNAAGRLDDMSVGVALLLCDNIGEARVLANELDALNQTRKEIEQGMQIEALTLCEKLERSRDTLPGGLAMYHPEWHQGVVGILASRIKERFHRPVIAFAPAGDGTLKGSGRSIQGLHMRDALERLDTLYPGMMLKFGGHAMAAGLSLEEDKFKLFQQRFGELVTEWLDPSLLQGEVVSDGPLSPAEMTMEVAQLLRDAGPWGQMFPEPLFDGHFRLLQQRLVGERHLKVMVEPVGGGPLLDGIAFNVDTALWPDNGVREVQLAYKLDINEFRGNRSLQIIIDNIWPI

percentage of +1 insertion (PCSK9 exon 12): 39.55%
+1 insertion frequency (PCSK9 exon 12): 35.0%
percentage of +1 insertion mutations (GYPB gene): 22.1%
percentage of +1 insertion mutations (TPH2 exon 9): 2.95%
B5: POLL: DNA polymerase λ, DSB-end blunting enzyme co-transferred with Cas9 and sgRNA (protein)
chain: CLQERRLVDVAGFSIFIPSRYLDHPQPSKAEQDASIPPGTHEALLQTALSPPPPPTRPVSPPQKAKEAPNTQAQPISDDEASDGEETQVSAADLEALISGHYPTSLEGDCEPSPAPAVLDKWVCAQPSSQKATNHNLHITEKLEVLAKAYSVQGDKWRALGYAKAINALKSFHKPVTSYQEACSIPGIGKRMAEKIIEILESGHLRKLDHISESVPVLELFSNIWGAGTKTAQMWYQQGFRSLEDIRSQASLTTQQAIGLKHYSDFLERMPREEATEIEQTVQKAAQAFNSGLLCVACGSYRRGKATCGDVDVLITHPDGRSHRGIFSRLLDSLRQEGFLTDDLVSQEENGQQQKYLGVCRLPGPGRRHRRLDIIVVPYSEFACALLYFTGSAHFNRSMRALAKTKGMSLSEHALSTAVVRNTHGCKVGPGRVLPTPTEKDVFRLLGLPYREPAERDW

From patent US12146152B2, “Systems, methods, and compositions for correction of frameshift mutations” (Massachusetts Institute of Technology, priority 2019, dated 2024)
